pKd: −log10 of the molar value.
Key:
[1] = system: TyrRS K244Q (Homo sapiens); assay: filter binding; details: Filter binding: 10 mM HEPES pH 7.5, 4 mM KCl, 0.02 mg/mL BSA, 0.2 mM DTT, 30 min RT, TyrRS 125 nM to 8 uM, wash 60 mM HEPES pH 7.5, 10 mM MgCl2; EMSA …
TyrRS WT (Homo sapiens) = assay: filter binding; details: Filter binding: 10 mM HEPES pH 7.5, 4 mM KCl, 0.02 mg/mL BSA, 0.2 mM DTT, 30 min RT, TyrRS 125 nM to 8 uM, wash 60 mM HEPES pH 7.5, 10 mM MgCl2; EMSA …

human tRNATyr transcript
pKd [1]: 5.93 | pKd (TyrRS WT (Homo sapiens)): 6.07

From publication PMC10592355
